Experimental data published in patent US11059864B2, “Chimeric antigen receptor (CAR) modulation” (TRUSTEES OF BOSTON UNIVERSITY, priority 2019, dated 2021).
Changes are numbered by the printed parent chain.

Experiments:
[1] = target: NS3a-genotype 1b (Hepatitis C virus genotype 1b, UniProt P26662, S1165A); conditions: read-out: affinity of basal complex with NS3a-genotype 1b; cited from earlier work
[2] = test system: Her2-expressing NALM cells; experiment: Cell killing by Her2-specific NS3 CAR CD8+ T cells; type: cell-based, human
Experimental: FIG. 3A-3B is a series of graphs. FIG. 3A is a bar graph showing the killing efficiency of CD8+ T cells following expression of the NS3 CAR constructs or traditional CAR, in the presence or absence of GZV.
To further evaluate the downstream effector function of NS3 CAR T cells, their cell killing abilities were tested. Her2-specific NS3 CAR CD8+ T cells were mixed with Her2-expressing NALM cells at a 1:1 ratio and the extent of cell killing determined.
By varying the dose of NS3 inhibitor, the level of CD8+ T cell-mediated killing could be modulated.

[3] = test system: Jurkat T cells; experiment: NS3 OFF CAR: CD69 levels in Jurkat cells (components on separate vectors); type: cell-based; conditions: Jurkat cells expressing OFF-switch components; presence of grazoprevir
Experimental: (§1) FIG. 8A-8D is a series of schematics and graphs showing testing of variations of the NS3 OFF CAR in Jurkat T cells. […] Combinations of components were tested as indicated. Each was introduced on a separate vector.
(§2) Two different versions of the first component (c and d) and four different versions of the second component of the OFF-switch (i, ii, iii, and iv) were tested in Jurkat T cells. […] The OFF-switch CARs can also function when expressed in a single vector (see e.g., FIG. 9A-9C, FIG. 10A-10D).

[4] = test system: NFAT; experiment: NS3 OFF CAR: NFAT-GFP levels in Jurkat T cells (components on separate vectors); type: cell-based; conditions: Jurkat T cells expressing two-component OFF-switch; presence of grazoprevir
Experimental: as §1
NS3 CAR OFF switches, comprising first and second components, were constructed as described herein. The first component comprises a peptide, which is specific for the NS3 of the second component, thus bringing the two components together.
as §2

[5] = target: T1, asunaprevir-bound NS3a (Hepatitis C virus genotype 1a, UniProt P27958); conditions: cited from earlier work
T1 construct: comprise the N-terminal 180 amino acids of the NS3 protein
T1 sequence (P27958 1027-1208): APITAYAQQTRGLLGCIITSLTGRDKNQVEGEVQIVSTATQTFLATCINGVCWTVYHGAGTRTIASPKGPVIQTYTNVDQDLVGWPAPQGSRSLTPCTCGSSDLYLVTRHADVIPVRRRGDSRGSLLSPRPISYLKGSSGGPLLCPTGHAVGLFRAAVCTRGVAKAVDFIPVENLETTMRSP

[6] = test system: grazoprevir/NS3a complex; conditions: cited from earlier work
Sequence of grazoprevir/NS3a complex (P27958 1027-1208, one chain of several): as the sequence (P27958 1027-1208) above

[7] = target: T2, NS3a/danoprevir complex (Hepatitis C virus genotype 1a, UniProt P27958); conditions: cited from earlier work
T2 construct: comprise the N-terminal 180 amino acids of the NS3 protein
T2 sequence (P27958 1027-1208, one chain of several): as the sequence (P27958 1027-1208) above

[8] = target: T3, apo NS3a (Hepatitis C virus genotype 1a, UniProt P27958); conditions: cited from earlier work
T3 construct: comprise the N-terminal 180 amino acids of the NS3 protein
T3 sequence (P27958 1027-1208): as above

[9] = test system: Her2+ target NALM cells; experiment: CD69 expression in CD4+ and CD8+ primary T cells expressing NS3 CARs mixed with target cells; type: cell-based; conditions: human CD4+ and CD8+ primary T cells; presence or absence of grazoprevir and/or Her2+ target NALM cells
From the text: (§3) FIG. 2A-2B is a series of bar graphs. FIG. 2A is a series of bar graphs showing CD69 expression in CD4+ and CD8+ T cells following expression of the NS3 CAR constructs or traditional CAR, in the presence or absence of GZV (Grazoprevir) and/or target cell. FIG. 2B is a series of bar graphs showing CD4+ and CD8+ T cell IL-2 and IFN-gamma cytokine release following expression the NS3 CAR constructs or traditional CAR, in the presence or absence of GZV and/or target cell.
(§4) These CARs were introduced into human CD4+ and CD8+ primary T cells and tested for functionality by mixing with Her2+ target NALM cells. As a readout for NS3 CAR control over T cell activity, levels of CD69 (an early T cell activation marker) and cytokine release (indicative of downstream effector function) were measured. It is expected that in the absence of grazoprevir (an NS3 inhibitor), the CAR is dismantled, rendering it non-functional. Once grazoprevir is added, the full CAR is assembled, thus allowing the T cell to activate when Her2-expressing target cells are present (see e.g., FIG. 1B).

[10] = test system: Her2+ target NALM cells; experiment: IL-2 and IFN-gamma cytokine release by CD4+ and CD8+ primary T cells expressing NS3 CARs; type: cell-based; conditions: human CD4+ and CD8+ primary T cells; presence or absence of grazoprevir and/or Her2+ target NALM cells
From the text: as §3, §4

Sequence of NS3a-genotype 1b (P26662 1029-1207 D1056E/L1062V/P1112Q/M1120L/V1140I/I1158V/S1165A/V1176A/I1196V): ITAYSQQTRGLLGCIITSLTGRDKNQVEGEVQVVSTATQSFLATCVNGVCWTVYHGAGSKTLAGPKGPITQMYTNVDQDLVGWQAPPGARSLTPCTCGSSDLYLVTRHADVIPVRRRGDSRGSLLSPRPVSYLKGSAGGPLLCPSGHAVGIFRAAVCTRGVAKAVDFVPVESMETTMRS

For “apo NS3a reader peptide GELDELVYLLDGPGYDPIHSD, SEQ ID NO: 204 [ANR]”, the Kd [1] is given as 10 nM.

In the case of `C=C[C@@H]1C[C@]1(NC(=O)[C@@H]1C[C@@H]2CN1C(=O)[C@H](C(C)(C)C)NC(=O)O[C@@H]1C[C@H]1CCCCCc1nc3ccc(OC)cc3nc1O2)C(=O)NS(=O)(=O)C1CC1` [grazoprevir], the “cell killing ability versus level of NS3 inhibitor” value ([2]; CD8+ T cells expressing the V2 NS3 CAR, 1:1 ratio, NS3 inhibitor varied between 0 uM-5 uM) is reported as “can be used to regulate the level of killing efficiency”, the “killing efficiency versus concentration of Grazoprevir” value ([2]; traditional CAR T cells or wild-type cells) is reported as “does not impact traditional CAR T cells or wild-type cells” and the CD69 levels [3] is reported as “diminished to baseline”. The NFAT-GFP levels [4] was “diminished to baseline”.

B1: D5: reader domain, SEQ ID NO: 206, 229 aa (protein)
chain: SSDEEEARELIERAKEAAERAQEAAERTGDPRVRELARELKRLAQEAAEEVKRDPSSSDVNEALKLIVEAIEAAVDALEAAERTGDPEVRELARELVRLAVEAAEEVQRNPSSSDVNEALLTIVIAIEAAVNALEAAERTGDPEVRELARELVRLAVEAAEEVQRNPSSREVNIALWKIVLAIQEAVESLREAEESGDPEKREKARERVREAVERAEEVQRDPSGWLNH
For B1, the “binding of NS3 in the presence of asunaprevir (asunaprevir-bound NS3a)” value (“binding of NS3 … (asunaprevir-bound NS3a)” below) [5] is given as “some binding”, the “binding of NS3 in the presence of grazoprevir” value (“binding of NS3 … of grazoprevir” for short) [6] is given as “moderate binding” and the “binding of NS3 in the presence of danoprevir (danoprevir-bound NS3a)” value (“binding of NS3 … (danoprevir-bound NS3a)” below) [7] is given as “moderate binding”.

B2: GNCR1: grazoprevir/NS3 complex reader domain, SEQ ID NO: 105, 233 aa (protein)
chain: DIEKLCKKAEEEAKEAQEKADELRQRHPDSQAAEDAEDLANLAVAAVLTACLLAQEHPNADIAKLCIKAASEAAEAASKAAELAQRHPDSQAARDAIKLASQAARAVILAIMLAAENPNADIAKLCIKAASEAAEAASKAAELAQRHPDSQAARDAIKLASQAAEAVERAIWLAAENPNADIAKKCIKAASEAAEEASKAAEEAQRHPDSQKARDEIKEASQKAEEVKERCKS
For B2, the “binding of NS3 … (asunaprevir-bound NS3a)” value [5] is listed as “little to no affinity”, the Kd ([6]; read-out: affinity for the grazoprevir/NS3a complex) is listed as 140 nM and the “binding of NS3 … (danoprevir-bound NS3a)” value [7] is listed as “little to no affinity”. For the same molecule, the “binding to apo NS3a” value [8] was “little to no affinity”.

B3: G5: reader domain, SEQ ID NO: 208 (named G3 in the sequence listing), 233 aa (protein)
chain: B2 chain with L42E, V44E, T49A, L52S
In the case of B3, the “binding of NS3 … (asunaprevir-bound NS3a)” value [5] is listed as “some binding”, the “binding of NS3 … of grazoprevir” value [6] is listed as “moderate binding” and the “binding of NS3 … (danoprevir-bound NS3a)” value [7] is listed as “no binding”.

B4: Traditional CAR: traditional third-generation Her2 CAR without NS3; SEQ ID NO: 4, 37 (protein)
chain: ALPVTALLLPLALLLHAARPKYLLPTAAAGLLLLAAQPAMAQVQLVQSGAEVKKPGESLKISCKGSGYSFTSYWIAWVRQMPGKGLEYMGLIYPGDSDTKYSPSFQGQVTISVDKSVSTAYLQWSSLKPSDSAVYFCARHDVGYCTDRTCAKWPEYFQHWGQGTLVTVSSGGGGSGGGGSGGGGSQSVLTQPPSVSAAPGQKVTISCSGSSSNIGNNYVSWYQQLPGTAPKLLIYDHTNRPAGVPDRFSGSKSGTSASLAISGFRSEDEADYYCASWDYTLSGWVFGGGTKLTVLGGKPIPNPLLGLDSTNGAATTTPAPRPPTPAPTIALQPLSLRPEACRPAAGGAVHTRGLDFACDFWVLVVVGGVLACYSLLVTVAFIIFWVRSKRSRLLHSDYMNMTPRRPGPTRKHYQPYAPPRDFAAYRSKRGRKKLLYIFKQPFMRPVQTTQEEDGCSCRFPEEEEGGCELRVKFSRSADAPAYKQGQNQLYNELNLGRREEYDVLDKRRGRDPEMGGKPRRKNPQEGLYNELQKDKMAEAYSEIGMKGERRRGKGHDGLYQGLSTATKDTYDALHMQALPPR
With B4 the CD69 expression [9] was “no response to the NS3 inhibitor” and the “IL-2 and IFN-gamma cytokine release” value [10] was “no response to the NS3 inhibitor”.

B5: DNCR2: danoprevir/NS3 complex reader domain, SEQ ID NO: 101, 229 aa (protein)
chain: SSDEEEARELIERAKEAAERAQEAAERTGDPRVRELARELKRLAQEAAEEVKRDPSSSDVNEALKLIVEAIEAAVDALEAAERTGDPEVRELARELVRLAVEAAEEVQRNPSSSDVNEALHSIVYAIEAAIFALEAAERTGDPEVRELARELVRLAVEAAEEVQRNPSSRNVEHALMRIVLAIYLAEENLREAEESGDPEKREKARERVREAVERAEEVQRDPSGWLNH
For B5, the “selectivity over NS3a bound to the drugs grazoprevir or asunaprevir” value [7] is listed as > 20,000 fold, the Kd ([7]; read-out: affinity for the NS3a/danoprevir complex) is listed as 0.036 nM and the “binding to apo NS3a” value [8] is listed as “no detectable binding”.

B6: DNCR1: danoprevir/NS3 complex reader domain, SEQ ID NO: 207, 229 aa (protein)
chain: B1 chain with T122S, N132H, N173E, I174H, W177M, Q184Y, V187E
In the case of B6, the “binding of NS3 … (asunaprevir-bound NS3a)” value [5] is given as “minimal binding”, the “binding of NS3 … of grazoprevir” value [6] is given as “minimal binding” and the “binding of NS3 … (danoprevir-bound NS3a)” value [7] is given as “high binding”.
